Experimental findings from paper PMC9737104, “Effects of Molecular Crowding and Betaine on HSPB5 Interactions, with Target Proteins Differing in the Quaternary Structure and Aggregation Mechanism” (International Journal of Molecular Sciences, 2022) are described below.

This data set deals with the molecule itself. Put plainly: AUC; sedimentation velocity at 25 °C, 48,000 rpm; GDH 0.2 mg/mL with HSPB5 0.05 mg/mL, 25 mg/mL PEG and 1 M betaine, heated 10 min at 50 °C before the run; 0.1 M Na-phosphate pH 7.6, 0.01 M NaCl.

B1: bovine liver glutamate dehydrogenase, heated 10 min at 50 °C (enzyme)
chain: not shown
notes: bovine liver glutamate dehydrogenase [EC 1.4.1.2-4], homohexamer of about 360 kDa; also called GDH; source: bought: Sigma-Aldrich (suspension in ammonium sulfate), desalted on a PD-10 column
Regarding B1, the “stoichiometry N” value is 6.
